Earlier results as cited in paper PMC5663392.

Molecular target: FANCL RING (Homo sapiens) (UniProt Q9NW38)
Sequence of UniProt Q9NW38 (Q9NW38 304-366): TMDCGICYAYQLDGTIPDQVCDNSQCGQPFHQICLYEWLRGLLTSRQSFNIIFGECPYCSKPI

Kd: 500 nM
Substance: Ube2T (from UniProt Q9NPD8)
